This is an account of results in patent US20030162942A1 (DYAX, published 2003).

Where a chain is given by its changes, count along the chain named. Positions of bridges follow the written chain, without caps; N, C: chain ends. No end group written: not given here.

B1: CMTI-I analogue 238, phage isolate (designed binder)
chain: RWCPRSNLECMKDSDCLAECVCLEHGYCGAGPSYIEGRIVGSA
notes: not shown: mature gene III protein of M13 phage
B2: CMTI-I analogue 237, phage isolate (designed binder)
chain: B1 chain
notes: as for B1
B3: CMTI-I analogue 236, phage isolate (designed binder)
chain: B1 chain with N7S
notes: as for B1
B4: 15-amino acid segment derived from affinity ligand isolate #109 (peptide)
peptide: RLCPKTDLGCMKDSD
modifications: disulfide 3-10; also: bound to a chromatographic support
notes: also called truncated 15-amino acid segment of the isolate #109; C3-C10 loop
B5: CMTI-I analogue 105, phage isolate (designed binder)
chain: B1 chain with W2L, R5K, S6T, N7S
notes: as for B1
B6: CMTI-I analogue 106, phage isolate (designed binder)
chain: B1 chain with P4S, R5T, S6Y, N7S, E9G
notes: as for B1
B7: CMTI-I analogue 109, phage isolate (designed binder)
chain: B1 chain with W2L, R5K, S6T, N7D, E9G
notes: as for B1
B8: CMTI-I analogue 107, phage isolate (designed binder)
chain: B1 chain with W2L, R5K, S6T, N7S
notes: as for B1
B9: CMTI-I analogue 108, phage isolate (designed binder)
chain: B1 chain with P4S, R5K, N7S
notes: as for B1

T1 sequence (P00750 36-562 limits assumed): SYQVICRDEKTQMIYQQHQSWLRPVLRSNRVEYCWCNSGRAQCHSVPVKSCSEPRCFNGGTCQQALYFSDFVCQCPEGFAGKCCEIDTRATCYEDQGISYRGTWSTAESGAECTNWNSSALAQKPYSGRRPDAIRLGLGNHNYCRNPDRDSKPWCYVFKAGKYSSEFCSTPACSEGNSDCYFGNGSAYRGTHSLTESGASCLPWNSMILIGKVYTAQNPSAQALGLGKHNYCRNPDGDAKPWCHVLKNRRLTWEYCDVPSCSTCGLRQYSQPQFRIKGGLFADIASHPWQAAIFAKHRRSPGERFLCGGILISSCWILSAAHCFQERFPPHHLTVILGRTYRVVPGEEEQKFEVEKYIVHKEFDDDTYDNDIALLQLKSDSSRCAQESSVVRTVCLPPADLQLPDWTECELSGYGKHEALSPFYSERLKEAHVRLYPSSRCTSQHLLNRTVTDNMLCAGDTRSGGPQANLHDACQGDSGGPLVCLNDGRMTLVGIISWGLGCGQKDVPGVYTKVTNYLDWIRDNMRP

One experiment addresses T1, recombinant human tissue-type plasminogen activator (tPA) (human, UniProt P00750 36-562).
T1 construct: Immobilized on ReactiGel agarose beads for the phage work; Used in solution for the column tests
The experiment can be described thus: phage display selection on tPA agarose beads, binding at pH 7. As for the experimental part:
For this work, tPA was purchased from CalBiochem (#612200) and immobilized on ReactiGel™ agarose beads from Pierce Chemical Company by methods described in Markland et al. (1996). Approximately 200 μg of tPA were coupled to 200 μL of ReactiGel™ slurry.
The phage libraries described were screened for binding to tPA through four rounds. In the first round, the phage libraries were mixed in separate reactions with tPA agarose beads at pH 7 in phosphate-buffered saline (PBS). Bovine serum albumin (BSA) was added at 0.1% to reduce non-specific binding. Unbound phage were washed off at pH 7, and the bound phage eluted at pH 2 for the first screen only. […] Pool A consisted of the combined outputs from the CMTI and Lib#1 libraries, and Pool B consisted of the combined outputs of the Lib#3 and Lib#5 libraries. The binding of pooled libraries was performed at pH 7, however, the first elution to remove bound phage was carried out at pH 5 and a subsequent elution at pH 2 to elute phage that are released in the pH 5-pH 2 range. This was repeated twice more for a total of 4 rounds of selection.
B1: the binding result is on record as “binds”.
As for B2, the binding result is given as “binds”.
With B3, the binding result is “binds”.

Another experiment addresses T1, recombinant human tissue-type …. The experiment can be described thus: peptide bound to a chromatographic support.
Consider B4, for which the binding result was “binds”.

Another experiment addresses human serum protease thrombin (human, UniProt P00734 328-622). Description: phage binding to protein on beads (data not shown).
For the molecule B5, the binding result is “no binding”.
Same read-out and setting: in the case of B6 it was “no binding”; in that of B7, “no binding”.
Same read-out and setting: in the case of B8 it was “no binding”; in that of B1, “no binding”; in that of B9, “no binding”.
In the case of B2, the binding result is listed as “no binding”.
Regarding B3, the binding result was “no binding”.

For another experiment, the target named is human serum protease plasmin (human, UniProt P00747 97-810, limits assumed). Description: phage binding to protein on beads (data not shown).
human serum protease plasmin, sequence (P00747 97-810 limits assumed): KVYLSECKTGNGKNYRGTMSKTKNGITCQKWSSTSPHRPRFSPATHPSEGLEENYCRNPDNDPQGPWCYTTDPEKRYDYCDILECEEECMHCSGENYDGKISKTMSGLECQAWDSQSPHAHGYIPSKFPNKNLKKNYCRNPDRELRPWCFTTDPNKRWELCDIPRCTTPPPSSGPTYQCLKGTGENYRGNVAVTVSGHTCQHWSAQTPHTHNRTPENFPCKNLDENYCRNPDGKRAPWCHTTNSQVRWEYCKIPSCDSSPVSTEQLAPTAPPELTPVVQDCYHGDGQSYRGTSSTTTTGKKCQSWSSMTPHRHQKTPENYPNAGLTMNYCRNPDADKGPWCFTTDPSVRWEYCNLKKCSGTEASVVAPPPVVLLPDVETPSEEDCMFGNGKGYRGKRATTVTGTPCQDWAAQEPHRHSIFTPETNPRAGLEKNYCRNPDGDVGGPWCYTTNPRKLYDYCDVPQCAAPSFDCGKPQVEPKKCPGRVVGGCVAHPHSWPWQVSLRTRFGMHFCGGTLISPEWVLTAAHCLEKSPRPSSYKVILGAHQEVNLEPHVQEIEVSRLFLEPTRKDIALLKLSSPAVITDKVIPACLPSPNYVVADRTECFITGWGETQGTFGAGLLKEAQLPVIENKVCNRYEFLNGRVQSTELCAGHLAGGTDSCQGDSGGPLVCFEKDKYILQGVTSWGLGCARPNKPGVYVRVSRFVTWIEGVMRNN
B5: the binding result is “no binding”.
Consider B6, for which the binding result was “no binding”.
On the same count and under the same terms, in the case of B7 it was “no binding”.
For B8, the binding result was “no binding”.
For B1, the binding result is “no binding”.
Turning to B9, the binding result is given as “no binding”.
As for B2, the binding result is recorded as “no binding”.
Turning to B3, the binding result is recorded as “no binding”.

In the next experiment the target is T1, recombinant human tissue-type …. The experiment can be described thus: phage isolate binding to and pH release from immobilized tPA.
As to B5, the binding result is “binds”.
B6: the binding result is “binds”.
The same measure, in the same setting: in the case of B7 it was “binds”; in that of B8, “binds”.
Consider B9, for which the binding result is “binds”.
